Laboratory results from patent US20100196267A1.

How the values were obtained:
HLA-DR (human) [1] = experiment: indirect flow cytometry on Namalwa cells, FITC-GAM 2nd Ab (none 2.91); irrelevant antibody
[2] = biological target: CD74 on dog lymphoma cells (dog); experiment: flow cytometry on dog lymphoma aspirate, murine MAbs (none 3.85)
[3] = biological target: CD74 on dog lymphoma cells (dog); experiment: flow cytometry on dog lymphoma aspirate, murine MAbs (none 3.37)
CD74 (human) [4] = biological target: CD74 (human) (UniProt P04233); experiment: indirect flow cytometry on Namalwa cells, FITC-GAM 2nd Ab (none 2.91)
Chain of CD74 (human) (P04233 whole entry): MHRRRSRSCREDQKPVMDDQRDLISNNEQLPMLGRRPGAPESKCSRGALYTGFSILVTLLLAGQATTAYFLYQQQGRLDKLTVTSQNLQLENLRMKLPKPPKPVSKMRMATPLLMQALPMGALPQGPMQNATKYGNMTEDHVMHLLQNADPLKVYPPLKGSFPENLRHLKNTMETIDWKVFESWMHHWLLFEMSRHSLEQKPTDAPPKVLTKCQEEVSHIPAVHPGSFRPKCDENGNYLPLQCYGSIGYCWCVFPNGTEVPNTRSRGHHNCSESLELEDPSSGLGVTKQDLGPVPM

HLA-DR (human) [5] = experiment: indirect flow cytometry on Namalwa cells, FITC-GAH 2nd Ab (none 2.52); irrelevant antibody
[6] = biological target: T1, CD20 on dog lymphoma cells (dog) (UniProt Q3C2E2); experiment: flow cytometry on dog lymphoma aspirate, murine MAbs (none 3.85)
T1 sequence (looked up): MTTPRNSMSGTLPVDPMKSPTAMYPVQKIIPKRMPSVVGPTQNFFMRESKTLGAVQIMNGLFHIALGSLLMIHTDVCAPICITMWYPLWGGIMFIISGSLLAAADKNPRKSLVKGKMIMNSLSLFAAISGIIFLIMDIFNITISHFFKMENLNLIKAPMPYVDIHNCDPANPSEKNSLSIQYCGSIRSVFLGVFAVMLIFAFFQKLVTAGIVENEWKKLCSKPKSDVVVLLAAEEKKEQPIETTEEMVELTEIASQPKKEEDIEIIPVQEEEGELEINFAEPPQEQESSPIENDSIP

[7] = biological target: T1, CD20 on dog lymphoma cells (dog); experiment: flow cytometry on dog lymphoma aspirate, murine MAbs (none 3.37)
CD20 (human) = biological target: T2, CD20 (human) (UniProt P11836); experiment: indirect flow cytometry on Namalwa cells, FITC-GAM 2nd Ab (none 2.91)
T2 sequence (looked up): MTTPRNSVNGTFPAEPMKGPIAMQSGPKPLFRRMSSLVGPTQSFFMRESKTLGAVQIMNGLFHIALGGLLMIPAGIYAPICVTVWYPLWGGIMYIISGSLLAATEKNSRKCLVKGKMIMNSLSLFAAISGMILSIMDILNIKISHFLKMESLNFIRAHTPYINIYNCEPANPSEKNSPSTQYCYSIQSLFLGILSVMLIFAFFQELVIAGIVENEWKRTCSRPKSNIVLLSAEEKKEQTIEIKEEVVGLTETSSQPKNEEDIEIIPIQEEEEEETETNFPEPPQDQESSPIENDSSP

HLA-DR (human) [8] = experiment: indirect flow cytometry on Namalwa cells, FITC-GAM 2nd Ab (none 2.91); control antibody
[9] = biological target: antigen on dog lymphoma cells recognised by L243 and hL243 (dog); experiment: flow cytometry on dog lymphoma aspirate, murine MAbs (none 3.37); control antibody
[10] = biological target: antigen on dog lymphoma cells recognised by L243 and hL243 (dog); experiment: flow cytometry on dog lymphoma aspirate, murine MAbs (none 3.85); control antibody
[11] = biological target: Fcγ receptors on effector cells; experiment: cell-based or functional assay
[12] = biological target: CD22 on dog lymphoma cells (dog); experiment: flow cytometry on dog lymphoma aspirate, humanized MAbs (none 3.24)
[13] = biological target: CD22 on dog lymphoma cells (dog); experiment: flow cytometry on dog lymphoma aspirate, humanized MAbs (none 4.48)
[14] = biological target: CD22 on dog lymphoma cells (dog); experiment: flow cytometry on dog lymphoma aspirate, murine MAbs (none 3.85)
[15] = biological target: CD22 on dog lymphoma cells (dog); experiment: flow cytometry on dog lymphoma aspirate, murine MAbs (none 3.37)
CD22 (human) = CD22 (human) (UniProt P20273); experiment: indirect flow cytometry on Namalwa cells, FITC-GAM 2nd Ab (none 2.91)
CD74 (human) [16] = biological target: CD74 (human) (UniProt P04233); experiment: indirect FACS, FITC-GAH Fc 2nd Ab, WSU-FSCCL cells (none 2.6); number split over two cells
CD74 (human) [17] = biological target: CD74 (human) (UniProt P04233); experiment: indirect flow cytometry, FITC-GAH Fc 2nd Ab, Ramos cells (none 3.1)
[18] = biological target: CD74 on dog lymphoma cells (dog); experiment: flow cytometry on dog lymphoma aspirate, humanized MAbs (none 3.24)
CD74 (human) [19] = biological target: CD74 (human) (UniProt P04233); experiment: indirect FACS, FITC-GAH Fc 2nd Ab, Namalwa cells (none 2.5); number split over two cells
CD74 (human) [20] = biological target: CD74 (human) (UniProt P04233); experiment: indirect flow cytometry, FITC-GAH Fc 2nd Ab, Namalwa cells (none 2.6)
CD74 (human) [21] = biological target: CD74 (human) (UniProt P04233); experiment: indirect FACS, FITC-GAH Fc 2nd Ab, SU-DHL-6 cells (none 4.6); number split over two cells
CD74 (human) [22] = biological target: CD74 (human) (UniProt P04233); experiment: indirect FACS, FITC-GAH Fc 2nd Ab, Raji cells (none 6.8); number split over two cells
CD74 (human) [23] = biological target: CD74 (human) (UniProt P04233); experiment: indirect FACS, FITC-GAH Fc 2nd Ab, Daudi cells (none 3.1); number split over two cells
[24] = biological target: CD74 on dog lymphoma cells (dog); experiment: flow cytometry on dog lymphoma aspirate, humanized MAbs (none 4.48)
CD74 (human) [25] = biological target: CD74 (human) (UniProt P04233); experiment: indirect FACS, FITC-GAH Fc 2nd Ab, Ramos cells (none 3.1); number split over two cells
CD74 (human) [26] = biological target: CD74 (human) (UniProt P04233); experiment: indirect flow cytometry, FITC-GAH Fc 2nd Ab, SU-DHL-6 cells (none 4.6)
CD74 (human) [27] = biological target: CD74 (human) (UniProt P04233); experiment: indirect flow cytometry, FITC-GAH Fc 2nd Ab, WSU-FSCCL cells (none 2.7)
CD74 (human) [28] = biological target: CD74 (human) (UniProt P04233); experiment: indirect flow cytometry, FITC-GAH Fc 2nd Ab, Daudi cells (none 3.2)
CD74 (human) [29] = biological target: CD74 (human) (UniProt P04233); experiment: indirect flow cytometry, FITC-GAH Fc 2nd Ab, Raji cells (none 6.9)
CD74 (human) [30] = biological target: CD74 (human) (UniProt P04233); experiment: indirect flow cytometry, FITC-GAH Fc 2nd Ab, RL cells (none 2.4)
CD74 (human) [31] = biological target: CD74 (human) (UniProt P04233); experiment: indirect flow cytometry on Namalwa cells, FITC-GAH 2nd Ab (none 2.52)

## RS7 (murine) (antibody)
HLA-DR (human) [1]
  GEO MEAN Fluorescence: 3.39

## LL1 (murine) (antibody)
[2]
  %: 6.69%
[3]
  Mean FL: 4.01
CD74 (human) [4]
  GEO MEAN Fluorescence: 17.3

## hRS7 (antibody)
HLA-DR (human) [5]
  GEO MEAN Fluorescence: 2.47

## m2B8 (antibody)
[6]
  %: 2.61%
[7]
  Mean FL: 3.11
CD20 (human)
  GEO MEAN Fluorescence: 6.16

## Ag8 (antibody)
HLA-DR (human) [8]
  GEO MEAN Fluorescence: 3.64
[9]
  Mean FL: 3.04
[10]
  %: 2.81%

## hL243γ1 (antibody)
[11]
  ADCC on Daudi cells, specific lysis corrected for the effect on effector cells (5 µg/ml, effector:target 50:1, 4 h): 48%

## hLL2 (antibody)
[12]
  Mean FL: 3.37
[13]
  %: 4.85%

## LL2 (murine) (antibody)
[14]
  %: 5.05%
[15]
  Mean FL: 3.73
CD22 (human)
  GEO MEAN Fluorescence: 10.5

## hLL1 (antibody)
CD74 (human) [16]
  Geometric Mean Fluorescence: 8.66
CD74 (human) [17]
  Geometric Mean Fluorescence: 23.3
[18]
  Mean FL: 3.33
CD74 (human) [19]
  Geometric Mean Fluorescence: 7.81
CD74 (human) [20]
  Geometric Mean Fluorescence: 7.8
CD74 (human) [21]
  Geometric Mean Fluorescence: 17.3
CD74 (human) [22]
  Geometric Mean Fluorescence: 95.1
CD74 (human) [23]
  Geometric Mean Fluorescence: 48.8
[24]
  %: 4.71%
CD74 (human) [25]
  Geometric Mean Fluorescence: 23.2
CD74 (human) [26]
  Geometric Mean Fluorescence: 17.3
CD74 (human) [27]
  Geometric Mean Fluorescence: 8.7
CD74 (human) [28]
  Geometric Mean Fluorescence: 48.8
CD74 (human) [29]
  Geometric Mean Fluorescence: 95.1
CD74 (human) [30]
  Geometric Mean Fluorescence: 7.9
CD74 (human) [31]
  GEO MEAN Fluorescence: 10.1

## hL243γ4P (antibody)
[11]
  ADCC on Daudi cells, specific lysis corrected for the effect on effector cells (5 µg/ml, effector:target 50:1, 4 h): 12%
